Data: patent EP3330286A1

Assays:
Assay in all cases: indirect ELISA, antigen coated, negative control
[1] = target: MPB83 recombinant protein (Mycobacterium bovis) (UniProt P0CAX7)
[2] = target: MPB70 recombinant protein (Mycobacterium bovis) (UniProt P0A669)
[3] = target: bovine tuberculin purified protein derivative (PPDb)
[4] = target: p22 immunogenic composition
[5] = target: p10 protein (ESAT-6) (Mycobacterium bovis) (UniProt P0A565)
[6] = target: mixture of MPB70 and MPB83 recombinant proteins

Chain of UniProt P0CAX7 (P0CAX7 25-220 limits assumed): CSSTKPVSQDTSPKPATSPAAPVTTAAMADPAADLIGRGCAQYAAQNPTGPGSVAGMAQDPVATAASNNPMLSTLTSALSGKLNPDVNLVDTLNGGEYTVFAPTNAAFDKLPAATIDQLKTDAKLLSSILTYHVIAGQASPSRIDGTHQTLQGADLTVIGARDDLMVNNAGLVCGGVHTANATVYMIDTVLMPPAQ
Chain of UniProt P0A669 (P0A669 31-193 limits assumed): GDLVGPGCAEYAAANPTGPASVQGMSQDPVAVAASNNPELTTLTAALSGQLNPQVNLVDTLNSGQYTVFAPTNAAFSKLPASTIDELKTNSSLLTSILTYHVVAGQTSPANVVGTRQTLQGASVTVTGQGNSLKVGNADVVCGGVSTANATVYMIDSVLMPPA
Chain of UniProt P0A565 (P0A565 2-95 limits assumed): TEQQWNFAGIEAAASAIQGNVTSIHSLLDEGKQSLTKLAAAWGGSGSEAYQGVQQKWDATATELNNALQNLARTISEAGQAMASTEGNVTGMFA

Control -
optical density [1]: 0.07 OD
optical density [2]: 0.08 OD
optical density [3]: 0.06 OD
optical density [4]: 0.07 OD
optical density [5]: 0.06 OD
optical density [6]: 0.07 OD
